Ends that are not written are not given here.
Columns and labels:
Solubility in water = format: physicochemical; details: previous studies
PSMA dimer = PSMA dimer (Homo sapiens, UniProt Q04609); test: Phage-based ELISA, binding to PSMA dimer
Method: In a phage-based ELISA, specific wells of a 96-well microtiter plate (Nunc Maxisorp) were coated with 100 μL/well of a solution of PSMA (5.56 or 11.1 nM) monomer or dimer protein diluted in PBS. The plate was incubated for 1 h on a shaker at room temperature. The coating solution was removed, and the wells were blocked with 320 μL/well of 0.2% w/v solution of BSA in PBS for 30 min, and washed three times with 300 μL/well of wash buffer PT (0.05% TWEEN-20 in PBS). […] The wells on the ELISA plate were then incubated with the phage samples (100 μL/well) for 1 h. The wells were washed five times with PT and then incubated with horseradish-peroxidase-conjugated anti-M13 antibody (100 μL/well, 1:5000 dilution in PBT) for 30 min. The wells were washed three times with PT, and two times with PBS. […] Following an appropriate incubation time, HRP activity was measured spectrophotometrically at 450 nm using a microtiter plate reader (Bio-Tek).
Phage-based wrapping ELISA: Phage (5 nM in 225 μL) and 2 μL of the purified cycloaddition reaction product, KCS-1/2 (308.7 μM) in water: acetonitrile (60:40), were mixed and serially diluted in PBT. […] Levels of phage binding were quantified as described above.

PSMA = PSMA (Homo sapiens, UniProt Q04609); test: Electrochemical impedance biosensing with virus-PEDOT films; format: binding; details: PBF-TWEEN
Method: Biosensing with Virus-PEDOT Films. To explore whether these wrapped virus particles could be exploited to create virus-electrode biosensors with a higher sensitivity for PSMA, films of PEDOT were prepared on gold electrodes by electropolymerization in the presence of phage-2 (FIG. 28). […] SEM imaging confirms incorporation of phage into the bioaffinity matrix; both filament-like and less extended features having dimensions consistent with phage integrated as rope-like bundles into the polymer at various angles to the film (FIGS. 4B-4C) were observed. The KCS-1 wrapper was then applied in vitro simply by exposing the resultant phage-2 film for a short time to an aqueous solution of the wrapper. For the biosensing measurements, only the highest affinity ligand combination of phage-2 wrapped with KCS-1 was used, and it was studied in comparison to phage-2 films.
EIS To Quantify PSMA Binding. […] The real component of the impedance, R, in particular, increases upon PSMA binding. […] The films incorporating phage-2 wrapped with KCS-1 provide higher sensitivity for PSMA detection than films incorporating unwrapped phage-2 (FIG. 4F). For example, the relative impedance change, ΔR/Ro, at each concentration of PSMA is 3-fold higher. […]

Chain of PSMA dimer (Q04609 44-750 limits assumed): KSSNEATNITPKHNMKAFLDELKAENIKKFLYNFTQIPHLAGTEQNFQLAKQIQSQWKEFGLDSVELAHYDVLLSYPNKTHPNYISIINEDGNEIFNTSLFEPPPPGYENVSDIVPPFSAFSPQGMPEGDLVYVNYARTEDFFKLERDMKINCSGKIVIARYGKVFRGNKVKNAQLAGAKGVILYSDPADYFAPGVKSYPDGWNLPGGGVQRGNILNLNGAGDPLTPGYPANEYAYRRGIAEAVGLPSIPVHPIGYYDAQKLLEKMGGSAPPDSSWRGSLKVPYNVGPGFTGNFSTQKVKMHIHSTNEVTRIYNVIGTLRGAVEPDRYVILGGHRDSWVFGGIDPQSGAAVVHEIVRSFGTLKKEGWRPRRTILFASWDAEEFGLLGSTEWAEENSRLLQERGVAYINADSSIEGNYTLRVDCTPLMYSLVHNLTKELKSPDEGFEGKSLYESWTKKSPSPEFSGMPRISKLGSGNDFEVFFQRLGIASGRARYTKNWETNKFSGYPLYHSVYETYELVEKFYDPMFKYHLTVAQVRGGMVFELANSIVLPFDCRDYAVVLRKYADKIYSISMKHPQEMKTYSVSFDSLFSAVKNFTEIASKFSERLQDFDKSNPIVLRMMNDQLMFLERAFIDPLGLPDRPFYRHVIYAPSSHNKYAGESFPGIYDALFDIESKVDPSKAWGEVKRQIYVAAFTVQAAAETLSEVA
Chain of PSMA (Q04609 44-750): as the sequence (Q04609 44-750 limits assumed) above

| Substance | solubility in water (Solubility in water) | relative binding affinity to PSMA dimer (PSMA dimer; phage-based ELISA) | binding to PSMA by PEDOT film (negative controls) (PSMA) | increase in apparent affinity to PSMA versus other wrapper concentrations (PSMA dimer; 2.7 μM KCS-1, FIG. 7) |
| --- | --- | --- | --- | --- |
| peptide 1: PSMA-binding peptide ligand, amino acid sequence CALCEFLG (SEQ ID NO: 1) | limited solubility in water | much lower apparent affinity for PSMA than peptide 2 |  |  |
| KCS-1: chemically synthesized wrapper: K14 oligolysine click-linked to PSMA ligand 1 (peptide 1 KKKKKKKKKKKKKK; peptide 2 KKKCALCEFLG; cysteine pairing not given here; also: K14 oligolysine click-linked to PSMA ligand 1) |  |  | no significant binding to PSMA | ~15% |

From patent publication US11168306B2, “Phage wrapping” (priority 2014, dated 2021)
